Measured values reported in patent US20240400717A1, “Antibody Binding to CHI3L1 for Treating Cancer” (National Cheng Kung University, priority 2021, published 2024).

How the values were obtained:
mouse CHI3L1 antigen = mouse CHI3L1 antigen (Mus musculus, UniProt Q61362); assay: Direct ELISA of phage clones, cross-reaction with mouse CHI3L1; type: binding; conditions: FIG. 1C
mouse rCHI3L1 = mouse rCHI3L1 (Mus musculus, UniProt Q61362); assay: ELISA binding to mouse rCHI3L1; conditions: FIG. 10B
Sequence of mouse rCHI3L1 (Q61362 30-389): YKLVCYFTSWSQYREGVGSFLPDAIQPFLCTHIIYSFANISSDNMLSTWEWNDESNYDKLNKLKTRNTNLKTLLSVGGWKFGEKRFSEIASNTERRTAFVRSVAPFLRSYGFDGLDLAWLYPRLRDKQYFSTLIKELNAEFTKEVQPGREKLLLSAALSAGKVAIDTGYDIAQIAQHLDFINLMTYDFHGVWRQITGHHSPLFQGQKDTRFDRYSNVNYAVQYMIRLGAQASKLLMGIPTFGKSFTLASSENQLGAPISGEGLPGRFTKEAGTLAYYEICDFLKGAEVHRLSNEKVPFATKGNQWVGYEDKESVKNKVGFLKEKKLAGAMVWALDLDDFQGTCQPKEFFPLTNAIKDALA
Description: FIGS. 10A to 10B show binding curves of ELISA assay indicated the binding of R4-4 (circle), R4-54 (square), 293R3-2 (triangle), and 293R3-4 (reverse triangle) to (FIG. 10A) human rCHI3L1 and (FIG. 10B) mouse rCHI3L1.
(§1) Thus, we established orthotopic animal models by directly injecting murine pancreatic cancer KPPC-luc cells (5×10^6) into pancreas of immunocompetent (C57BL/6J) mice. All mice were divided into two groups and treated with IgG isotype antibody as control, or mAb clone R4-4 (5 mg/kg) by intravenous (i.v.) injection via tail-vein at indicated time points (Day 3, Day 7, Day 10, and Day 14). Mice were sacrificed to verify tumor information on day 28. […] Data was presented as means±S.D. P values refer to two-tailed Student's t test. * P<0.05, ** P<0.01.

KPPC-luc cells [1] = assay: KPPC-luc orthotopic C57BL/6J mice model, mono-treatment; type: in vivo
Description: as §1

MiaPaCa-2 cells [2] = assay: MiaPaCa-2 subcutaneous xenograft NOD-SCID mice, efficacy and toxicity; type: in vivo; conditions: for histology of liver, lung and kidney / mice body weight / serum level of GOT, GPT, BUN, albumin and creatinine: 5 mg/kg i.v.; for growth of MiaPaCa-2 subcutaneous xenografts: 5 mg/kg i.v. day 7, 14, 21, sacrificed day 28; for mice body weight / serum level of GOT, GPT, BUN, albumin and creatinine: vs IgG control
Description: Next, we examined whether our mAb clones R4-4 and R4-54 exert any toxicity in vivo. We performed a xenograft model by subcutaneously implanting MiaPaCa-2 cells to NOD-SCID mice. The mice were i.v. injected with IgG isotype, mAb clone R4-4, or clone R4-54 (5 mg/kg) once a week starting from day 7 to day 21, that is, day 7, day 14, and day 21, and mice were sacrificed on day 28. […] To evaluate the potential safety of our developed mAbs, we examined body weight, serum biochemical markers and histology sections of three major organs of tumor-bearing mice. […] Scale bar 100 μm. P values were determined by one-way ANOVA. * P<0.05, ** P<0.01, *** P<0.001, **** P<0.0001.

[3] = Mouse muscle fiber area analysis (cachexia) in KPPC-luc orthotopic model; type: in vivo, C57BL/6J mice
Description: Since pancreatic patients often suffer from cachexia, the cancer-related muscle loss disorder (Henderson et al. 2018; Yoo et al. 2021), we further performed the mouse muscle fiber area analysis in IgG and R4-4 (10 mg/kg) groups. […] The value of the cross-sectional cutoff area was set to 1800, representing severe muscle loss (FIG. 15D).

KPPC-luc cells [4] = assay: KPPC-luc orthotopic C57BL/6J mice model, mAb and chemotherapy combination; conditions: for tumor weight: day 29
MiaPaCa-2 cells [5] = assay: MiaPaCa-2-bearing hHSC-HIS mouse model; type: in vivo, hHSC reconstituted ASID mice
Excerpt: (§2) We used the advanced severe immunodeficiency (ASID) mice those were implanted with human […] hematopoietic stem cells (HSCs). MiaPaCa-2 and H460 cells were then subcutaneously injected into hHSC reconstituted ASID mice to evaluate the anti-tumor effects of CHI3L1 mAb clone R4-54 on lung and pancreatic cell lines in vivo. […] Tumor and peripheral blood were also harvest for further immune cell population examinations. […] In addition, peripheral blood samples of two tumor-bearing hHSC-HIS mice models were collected for analysis of immune cell populations. […] Data was presented as means±S.D. P values refer to two-tailed Student's t test. * P<0.05, ** P<0.01, *** P<0.001.

H460 cells = assay: H460-bearing hHSC-HIS mouse model; type: in vivo, hHSC reconstituted ASID mice
Excerpt: as §2

[6] = immunohistochemical staining, CD86 and CD163

Sequence of mouse CHI3L1 antigen (Q61362 30-389): as above

B1: R4-4: fully human anti-CHI3L1 IgG1 mAb, Table 1 No. 9; heavy chain SEQ ID NO: 9, light chain SEQ ID NO: 10 (antibody, listed as Homo sapiens)
VH: EVQLLESGGGLLQPGGSLRLSCAASGLTFRNYAMTWVRQAPGKGLEWVSTISGNGDETFYADSVKGHFTISRDNSKDTVYLQMNSLRAEDTAVYYCAKGGHYSFFDSWGQGSPVTVSS
light: NFMLTQPHSVSESPGKTVTISCTRSSGSIASNYVQWYQQRPGSSPTTVIYEDNQRPSGVPDRFSGSIDSSSNSASLTISGLKTEDEADYYCQSYDSSNYVFGTGTKVTVLGQPKANPTVTLFPPSSEELQANKATLVCLISDFYPGAVTVAWKADGSPVKAGVETTKPSKQSNNKYAASSYLSLTPEQWKSHRSYSCQVTHEGSTVEKTVAPAECS
- recognition of mouse CHI3L1 by phage clones (mouse CHI3L1 antigen): cross-react with mouse CHI3L1
- cross-reaction with murine CHI3L1 (mouse rCHI3L1): the only one that could cross-react with murine CHI3L1
- tumor weight (KPPC-luc cells [1]; 5 mg/kg i.v. Day 3, 7, 10, 14, day 28, vs IgG): significant reduction of tumor weight
- body weight (KPPC-luc cells [1]; 5 mg/kg i.v., vs IgG): without apparently body weight change
- M1/M2 ratio (KPPC-luc cells [1]; flow cytometry, 5 mg/kg i.v.): increased the M1/M2 ratio
- tumor infiltrating M2-like TAMs (CD206+) (KPPC-luc cells [1]; flow cytometry, 5 mg/kg i.v.): decreased
- tumor infiltrating Treg (CD45+, Foxp3+) populations (KPPC-luc cells [1]; flow cytometry, 5 mg/kg i.v.): decreased
- histology of liver, lung and kidney (MiaPaCa-2 cells [2]): no significant adverse effects
- growth of MiaPaCa-2 subcutaneous xenografts (MiaPaCa-2 cells [2]): significantly delayed the growth
- mice body weight (MiaPaCa-2 cells [2]): no significant change in mice body weight
- serum level of GOT, GPT, BUN, albumin and creatinine (MiaPaCa-2 cells [2]): No obvious difference
- muscle fiber area ([3]; R4-4 10 mg/kg compared to IgG): larger muscle fiber area
- muscle fibers below the cutoff value ([3]; R4-4 10 mg/kg, cross-sectional cutoff area 1800): 30.4%
- tumor weight (KPPC-luc cells [4]; GEM 25 mg/kg, R4-4 10 mg/kg, Abraxane 2.5 mg/kg, i.p. day 14, 20, 25): 2.61 g
- tumor weight (KPPC-luc cells [4]; R4-4 15 mg/kg i.p. day 14, 20, 25): 1.74
- Treg (CD4+, CD25+, Foxp3+) (KPPC-luc cells [4]; R4-4 15 mg/kg, flow cytometry): significant decrease of Treg
- angiogenesis level indicated by CD31 (KPPC-luc cells [4]; all treated groups (R4-4 10 or 15 mg/kg)): largely reduced
- tumor-infiltrating M1-like TAMs (CD86+, CD11b+) and M1/M2 ratio (KPPC-luc cells [4]; flow cytometry): increased M1-like TAMs
- tumor-infiltrating M2-like TAMs (CD206+, CD11b+) (KPPC-luc cells [4]; flow cytometry): decreased M2-like TAMs

B2: R4-54: fully human anti-CHI3L1 IgG1 mAb, Table 1 No. 34; heavy chain SEQ ID NO: 33, light chain SEQ ID NO: 34 (antibody, listed as Homo sapiens)
VH: QVQLVESGGGVVQPGRSLRLSCAASGFTFSSYGMHWVRQAPGKGLEWVAVISYDGSDKDYADSVKGRFTISRDNSKNTLFLQMNSLRAEDTAVYYCARDDYDSTYYFDNWGQGTTVTVSS
light: SYELTQPPSVSVSPGQTASITCSGDILADQYASWYQQKPGQSPVLVIYHDTKRPSGVPERFSGSTSGNTATLTISGTQAMDEAAYYCQAWDINTAWVFGGGTQLTVLGQPKAAPSVTLFPPSSEELQANKATLVCLISDFYPGAVTVAWKADSSPVKAGVETTTPSKQSNNKYAASSYLSLTPEQWKSHRSYSCQVTHEGSTVEKTVAPTECS
- growth of subcutaneous xenografts (MiaPaCa-2 cells [5]; 5 mg/kg i.v. every five days from day 14, day 32): significantly delayed the growth
- M2-like TAM and Treg populations in tumor-infiltrating immune cells (MiaPaCa-2 cells [5]; flow cytometry): M2-like TAM and Treg populations were decreased
- percentages of M1 macrophages and CD8+ T cells in tumor-infiltrating immune cells (MiaPaCa-2 cells [5]; flow cytometry): increased the percentages of M1 macrophages and CD8+ T cells
- intratumoral M1 to M2 ratio and CD8 T cells (MiaPaCa-2 cells [5]; [6]): M1 to M2 ratio and CD8 T cells were both increased
- peripheral blood CD8+ T cells and Tregs (MiaPaCa-2 cells [5]; peripheral blood): increased CD8+ T cells and decreased Tregs
- growth of subcutaneous xenografts (H460 cells; 5 mg/kg i.v. every five days from day 6, day 27): significantly delayed the growth
- M2-like TAM and Treg populations in tumor-infiltrating immune cells (H460 cells; flow cytometry): M2-like TAM and Treg populations were decreased
- percentages of M1 macrophages and CD8+ T cells in tumor-infiltrating immune cells (H460 cells; flow cytometry): increased the percentages of M1 macrophages and CD8+ T cells
- intratumoral M1 to M2 ratio and CD8 T cells (H460 cells; [6]): M1 to M2 ratio and CD8 T cells were both increased
- peripheral blood CD8+ T cells and Tregs (H460 cells; peripheral blood): increased CD8+ T cells and decreased Tregs
- histology of liver, lung and kidney (MiaPaCa-2 cells [2]): no significant adverse effects
- growth of MiaPaCa-2 subcutaneous xenografts (MiaPaCa-2 cells [2]): significantly delayed the growth
- mice body weight (MiaPaCa-2 cells [2]): no significant change in mice body weight
- serum level of GOT, GPT, BUN, albumin and creatinine (MiaPaCa-2 cells [2]): No obvious difference
